We go through three molecules from paper PMC2121028 (The Journal of Cell Biology, 1996).

B1: alpha-COP, the 135-kD subunit of coatomer (bovine), GAL4 fusion (natural protein, UniProt Q27954 1-1224, looked up)
chain: MLTKFETKSARVKGLSFHPKRPWILTSLHNGVIQLWDYRMCTLIDKFDEHDGPVRGIDFHKQQPLFVSGGDDYKIKVWNYKLRRCLFTLLGHLDYIRTTFFHHEYPWILSASDDQTIRVWNWQSRTCVCVLTGHNHYVMCAQFHPSEDLVVSASLDQTVRVWDISGLRKKNLSPGAVESDVRGITGVDLFGTTDAVVKHVLEGHDRGVNWAAFHPTMPLIVSGADDRQVKIWRMNESKAWEVDTCRGHYNNVSCAVFHPRQELILSNSEDKSIRVWDMSKRTGVQTFRRDHDRFWVLAAHPNLNLFAAGHDGGMIVFKLERERPAYAVHGNMLHYVKDRFLRQLDFNSSKDVAVMQLRSGSKFPVFSMSYNPAENAVLLCTRASNLENSTYDLYTIPKDADTQNPDAPEGKRSSGLTAVWVARNRFAVLDRMHSLLIKNLKNEITKKVQVPNCDEIFYAGTGNLLLRDAESITLFDVQQKRTLASVKISKVKYVIWSADMSHVALLAKHAIVICNRKLEALCNIHENIRVKSGAWDESGVFIYTTSNHIKYAVTTGDYGIIRTLDLPIYVTRVKGNNVYCLDRECRPRVLTIDPTEFKFKLALINRKYDEVLHMVRNAKLVGQSIIAYLQKKGYPEVALHFVKDEKTRFSLALECGNIEIALEAAKALDDKNCWEKLGEVALLQGNHQIVEMCYQRTKNFDKLSFLYLITGNLEKLRKMMKIAEIRKDMSGHYQNALYLGDVSERVRILKNCGQKSLAYLTAATHGLDEEAESLKETFDPEKETIPDIDPNAKLLQPPAPIMPLDTNWPLLTVSKGFFEGSIASKGKGGALAADIDIDTVGTEGWGEDAELQLDEDGFVEATEGLGDDALGKGQEEGGGWDVEEDLELPPELDIPPGAAGGAEDGFFVPPTKGTSPTQIWCNNSQLPVDHILAGSFETAMRLLHDQVGVTQFGPYKQLFLQTYARGRTTYQALPCLPSMYGYPNRNWKDAGLKNGVPAVGLKLNDLIQRLQLCYQLTTVGKFEEAVEKFRSILLSVPLLVVDNKQEIAEAQQLITICREYIVGLSMETERKKLPKETLEQQKRICEMAAYFTHSNLQPVHMILVLRTALNLFFKLKNFRTAAAFARRLLELGPKPEVAQQTRKILSACEKNPTDAYQLNYDMHNPFDICAASYRPIYRGKPVEKCPLSGACYSPEFKGQICKVTTVTEIGKDVIGLRISPLQFR
B2: epsilon-COP, GAL4 fusion (natural protein)
chain: not shown
B3: beta'-COP, GAL4 fusion (natural protein, bovine, UniProt P35605 1-906, looked up)
chain: MPLRLDIKRKLTARSDRVKSVDLHPTEPWMLASLYNGSVCVWNHETQTLVKTFEVCDLPVRAAKFVARKNWVVTGADDMQIRVFNYNTLERVHMFEAHSDYIRCIAVHPTQPFILTSSDDMLIKLWDWDKKWSCSQVFEGHTHYVMQIVINPKDNNQFASASLDRTIKVWQLGSSSPNFTLEGHEKGVNCIDYYSGGDKPYLISGADDRLVKIWDYQNKTCVQTLEGHAQNVSCASFHPELPIIITGSEDGTVRIWHSSTYRLESTLNYGMERVWCVASLRGSNNVALGYDEGSIIVKLGREEPAMSMDANGKIIWAKHSEVQQANLKAMGDAEIKDGERLPLAVKDMGSCEIYPQTIQHNPNGRFVVVCGDGEYIIYTAMALRNKSFGSAQEFAWAHDSSEYAIRESNSVVKIFKNFKEKKSFKPDFGAESIYGGFLLGVRSVNGLAFYDWENTELIRRIEIQPKHIFWSDSGELVCIATEESFFILKYLSEKVLAAQETHEGVTEDGIEDGFEVLGEIQEIVKTGLWVGDCFIYTSSVNRLNYYVGGEIVTIAHLDRTMYLLGYIPKDNRLYLGDKELNIVSYSLLVSVLEYQTAVMRRDFSMADKVLPTIPKEQRTRVAHFLEKQGFKQQALTVSTDPEHRFELALQLGELKIAYQLAVEAESEQKWKQLAELAISKCQFGLAQECLHHAQDYGGLLLLATASGNASMVNKLAEGAERDGKNNVAFMSYFLQGKLDACLELLIRTGRLPEAAFLARTYLPSQVSRVVKLWRENLSKVNQKAAESLADPTEYENLFPGLKEAFVVEEWVKETHADLWPAKQYPLVTPNEERNVMEEAKGFQPSRSAAQQELDGKPASPTPVIVTSQTANKEEKSLLELEVDLDNLEIEDIDTTDINLDEDILDD

Assay [1] addresses B2. Nature of the assay: two-hybrid.
Assay [2] concerns the target B1. Nature of the assay: two-hybrid.

In the case of B1, the “generations/day in -His + 25 mM AT” value in assay [1] stood at 2.8 generations/day.

Turning to B2, the “generations/day in -His + 25 mM AT” value in assay [2] worked out at 5.2 generations/day.

B3: the “generations/day in -His + 25 mM AT” value in assay [2] was 2.11 generations/day.
